In paper PMC10797690, “The SIRT3-ATAD3A axis regulates MAM dynamics and mitochondrial calcium homeostasis in cardiac hypertrophy” (International Journal of Biological Sciences, 2024):

Target: T1, NAD+-dependent deacetylase Sirtuin 3 (SIRT3), protein used for SPR
T1 chain: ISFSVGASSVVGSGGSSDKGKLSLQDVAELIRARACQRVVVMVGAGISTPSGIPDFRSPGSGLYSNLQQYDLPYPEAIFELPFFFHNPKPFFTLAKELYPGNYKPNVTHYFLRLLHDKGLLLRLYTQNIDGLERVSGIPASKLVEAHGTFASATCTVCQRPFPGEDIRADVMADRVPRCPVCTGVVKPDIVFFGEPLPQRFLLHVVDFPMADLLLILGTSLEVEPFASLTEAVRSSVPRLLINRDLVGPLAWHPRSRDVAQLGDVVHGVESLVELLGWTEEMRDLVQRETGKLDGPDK
Experiment: SPR; multicycle kinetics; which protein was immobilised is not told
Settings: both partners purified

B1: ATPase family AAA-domain containing protein 3A (ATAD3A), protein used for SPR (natural protein)
chain: SWLFGINKGPKGEGAGPPPPLPPAQPGAEGGGDRGLGDRPAPKDKWSNFDPTGLERAAKAARELEHSRYAKDALNLAQMQEQTLQLEQQSKLKEYEAAVEQLKSEQIRAQAEERRKTLSEETRQHQARAQYQDKLARQRYEDQLKQQQLLNEENLRKQEESVQKQEAMRRATVEREMELRHKNEMLRVEAEARARAKAERENADIIREQIRLKAAEHRQTVLESIRTAGTLFGEGFRAFVTDWDKVTATVAGLTLLAVGVYSAKNATLVAGRFIEARLGKPSLVRETSRITVLEALRHPIQVSRRLLSRPQDALEGVVLSPSLEARVRDIAIATRNTKKNRSLYRNILMYGPPGTGKTLFAKKLALHSGMDYAIMTGGDVAPMGREGVTAMHKLFDWANTSRRGLLLFVDEADAFLRKRATEKISEDLRATLNAFLYRTGQHSNKFMLVLASNQPEQFDWAINDRINEMVHFDLPGQEERERLVRMYFDKYVLKPATEGKQRLKLAQFDYGRKCSEVARLTEGMSGREIAQLAVSWQATAYASEDGVLTEAMMDTRVQDAVQQHQQKMCWLKAEGPGRGDEPSPS
Q: For B1, which Kd is on record?
A: 50.9 nM
